# Numbered stars: 1 amine (or outer) side, 2 acyl side, 3 side chain; on linkers, the order of the positions; unused ones are H or OH. Bridge positions count the residues as written; N and C are the ends. Square brackets hold non-standard residues; d marks the D form. Peptide text beside a SMILES is read from it. X2 = C[C@@](Cc1c[nH]c2cc(Cl)ccc12)(N[*:1])C(=O)[*:2]; Trp(6-Cl) = N[C@@H](Cc1c[nH]c2cc(Cl)ccc12)C(=O)O; X3 = C=CCCCC(CCCC=C)(N[*:1])C(=O)[*:2]; R8 = C=CCCCCCC[C@@](C)(N)C(=O)O; S8 = C=CCCCCCC[C@](C)(N)C(=O)O; S5 = C=CCCC[C@](C)(N)C(=O)O; Nle = CCCC[C@H](N)C(=O)O; Ac3c = NC1(C(=O)O)CC1; Aib = CC(C)(N)C(=O)O
# Target: HDMx (Homo sapiens, UniProt O15151)
# Test: FP Competition Blinding Assay | HDMx IC50 (nM)
# Settings: not given
# Chain of HDMx (O15151 whole entry, looked up): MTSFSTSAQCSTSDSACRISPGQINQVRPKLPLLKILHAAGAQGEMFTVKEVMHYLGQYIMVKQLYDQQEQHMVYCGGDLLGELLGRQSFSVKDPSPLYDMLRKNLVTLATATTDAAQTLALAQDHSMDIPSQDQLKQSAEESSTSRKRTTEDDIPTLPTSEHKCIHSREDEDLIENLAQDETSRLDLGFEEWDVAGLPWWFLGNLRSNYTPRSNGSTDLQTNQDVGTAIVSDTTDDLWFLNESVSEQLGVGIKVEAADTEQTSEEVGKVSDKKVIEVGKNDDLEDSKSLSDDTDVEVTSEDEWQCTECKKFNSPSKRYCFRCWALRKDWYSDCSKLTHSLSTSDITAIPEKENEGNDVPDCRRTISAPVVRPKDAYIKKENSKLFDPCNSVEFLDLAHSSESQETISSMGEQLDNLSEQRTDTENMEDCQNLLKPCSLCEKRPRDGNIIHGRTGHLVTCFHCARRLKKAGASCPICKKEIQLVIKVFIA
row,IC50 [nM],Compound
1,967,"CC(=O)N[C@@H](Cc1ccccc1)C(=O)N[C@]1(C)CCCCCCC=CCCC[C@@](C)(C(=O)N[C@@H](C)C(N)=O)NC(=O)[C@H](CC(C)C)NC(=O)C2(CC2)NC(=O)[C@H](CCC(=O)O)NC(=O)[C@H](Cc2c[nH]c3cc(Cl)ccc23)NC(=O)[C@H](Cc2ccc(O)cc2)NC(=O)[C@H](C)NC1=O [SP-128, Ac- F $r8 A Y 6clW E Ac3c L $ A -NH2] (Ac-F[R8]AY[Trp(6-Cl)]E[Ac3c]L[S5]A-NH2; staple 2-9)"
2,463,"CC(=O)N[C@@H](CC(C)C)C(=O)N[C@H](C(=O)N[C@@H](Cc1ccccc1)C(=O)N[C@]1(C)CCCCCCC=CCCC[C@@](C)(C(=O)N[C@@H](C)C(N)=O)NC(=O)[C@H](CC(C)C)NC(=O)[C@H](CCC(N)=O)NC(=O)[C@H](C)NC(=O)[C@H](Cc2c[nH]c3ccccc23)NC(=O)[C@H](Cc2ccc(O)cc2)NC(=O)[C@H](C)NC1=O)[C@@H](C)O [SP-194, Ac- L T F $r8 A Y W A Q L $ A -NH2] (Ac-LTF[R8]AYWAQL[S5]A-NH2; staple 4-11)"
3,318,"CC(=O)N[C@@H](CC(C)C)C(=O)N[C@H](C(=O)N[C@@H](Cc1ccccc1)C(=O)N[C@]1(C)CCCCCCC=CCCC[C@@](C)(C(=O)N[C@@H](CO)C(N)=O)NC(=O)[C@H](CC(C)C)NC(=O)[C@H](CCC(N)=O)NC(=O)[C@H](C)NC(=O)[C@H](Cc2c[nH]c3ccccc23)NC(=O)[C@H](Cc2ccc(O)cc2)NC(=O)[C@H](Cc2ccccc2)NC1=O)[C@@H](C)O [SP-267, Ac- L T F $r8 F Y W A Q L $ S -NH2] (Ac-LTF[R8]FYWAQL[S5]S-NH2; staple 4-11)"

# Test system: not listed separately
# Test: circular dichroism
# Settings: aqueous, '0% TFE' (buffer not stated; general: 50 mM potassium phosphate pH 7 or water); pH ns; ns °C; 25-50 uM (general text)
row,Compound,helicity [%]
1,CC(=O)N[C@H](C(=O)N[C@@H](CO)C(=O)N[C@@H](Cc1ccccc1)C(=O)N[C@]1(C)CCCCCCCCCCC[C@@](C)(C(=O)N2CCC[C@H]2C(N)=O)NC(=O)[C@H](CC(C)C)NC(=O)[C@H](CC(C)C)NC(=O)[C@H](CC(N)=O)NC(=O)[C@H](Cc2c[nH]c3ccccc23)NC(=O)[C@H](Cc2ccc(O)cc2)NC(=O)[C@H](CCC(N)=O)NC1=O)[C@@H](C)O,2.6
2,CC(=O)N[C@@H](C)C(=O)N[C@@H](C)C(=O)N[C@@H](C)C(=O)N[C@@H](CCCNC(=N)N)C(=O)N[C@@H](C)C(=O)N[C@@H](C)C(=O)N[C@]1(C)CCCCCCC=CCCC[C@@](C)(C(=O)N[C@@H](C)C(=O)N[C@@H](C)C(N)=O)NC(=O)[C@H](C)NC(=O)[C@H](C)NC(=O)[C@H](CCCNC(=N)N)NC(=O)[C@H](C)NC(=O)[C@H](C)NC(=O)[C@H](C)NC1=O (Ac-AAARAA[R8]AAARAA[S5]AA-NH2; staple 7-14),131
3,CSCC[C@H](NC(=O)[C@H](Cc1ccccc1)NC(C)=O)C(=O)NC(C)(C)C(=O)N[C@@H](Cc1ccc(O)cc1)C(=O)N[C@@H](Cc1c[nH]c2cc(Cl)ccc12)C(=O)N[C@@H](CCC(=O)O)C(=O)NC1(C(=O)N[C@@H](CC(C)C)C(N)=O)CC1 (Ac-FM[Aib]Y[Trp(6-Cl)]E[Ac3c]L-NH2),-3.6
4,CC(=O)N[C@@H](CC(C)C)C(=O)N[C@H](C(=O)N[C@@H](Cc1ccccc1)C(=O)N[C@]1(C)CCCCCCC=CCCC[C@@](C)(C(=O)N[C@@H](CO)C(N)=O)NC(=O)[C@H](CC(C)C)NC(=O)[C@H](CCC(N)=O)NC(=O)[C@H](CCCNC(=N)N)NC(=O)[C@H](Cc2c[nH]c3ccccc23)NC(=O)[C@H](Cc2ccc(O)cc2)NC(=O)[C@H](Cc2c[nH]cn2)NC1=O)[C@@H](C)O (Ac-LTF[R8]HYWRQL[S5]S-NH2; staple 4-11),59.5
5,CC(=O)N[C@@H](CCC(N)=O)C(=O)N[C@@H](CO)C(=O)N[C@@H](CCC(N)=O)C(=O)N[C@@H](CCC(N)=O)C(=O)N[C@H](C(=O)N[C@@H](Cc1ccccc1)C(=O)N[C@]1(C)CCCCCCC=CCCC[C@@](C)(C(=O)N[C@@H](CCC(N)=O)C(N)=O)NC(=O)[C@H](CC(C)C)NC(=O)[C@H](CC(C)C)NC(=O)[C@H](CCCNC(=N)N)NC(=O)[C@H](Cc2c[nH]c3ccccc23)NC(=O)[C@H](CC(C)C)NC(=O)[C@H](CC(N)=O)NC1=O)[C@@H](C)O (Ac-QSQQTF[R8]NLWRLL[S5]Q-NH2; staple 7-14),77.8
6,CC(=O)N[C@@H](CCC(N)=O)C(=O)N[C@@H](CO)C(=O)N[C@@H](CCC(N)=O)C(=O)N[C@@H](CCC(N)=O)C(=O)N[C@H](C(=O)N[C@@H](Cc1ccccc1)C(=O)N[C@]1(C)CCCCCCC=CCCC[C@@](C)(C(=O)N[C@@H](CCC(N)=O)C(=O)N[C@@H](CC(N)=O)C(N)=O)NC(=O)[C@H](CC(C)C)NC(=O)[C@H](CC(C)C)NC(=O)[C@H](CCCNC(=N)N)NC(=O)[C@](C)(Cc2c[nH]c3cc(Cl)ccc23)NC(=O)[C@H](CC(C)C)NC(=O)[C@H](CC(N)=O)NC1=O)[C@@H](C)O (Ac-QSQQTF[R8]NL[X2]RLL[S5]QN-NH2; staple 7-14),60.9
7,C=CCCCCCC[C@](C)(NC(=O)[C@H](CC(C)C)NC(=O)[C@H](CC(C)C)NC(=O)[C@H](CCCNC(=N)N)NC(=O)[C@H](Cc1c[nH]c2ccccc12)NC(=O)[C@H](CC(C)C)NC(=O)[C@H](CC(N)=O)NC(=O)C(CCCC=C)(CCCC=C)NC(=O)[C@H](Cc1ccccc1)NC(=O)[C@@H](NC(=O)[C@H](CCC(N)=O)NC(=O)[C@](C)(CCCC=C)NC(=O)[C@H](CO)NC(=O)[C@H](CCC(N)=O)NC(C)=O)[C@@H](C)O)C(=O)N[C@@H](CCC(N)=O)C(=O)N[C@@H](CC(N)=O)C(N)=O (Ac-QS[S5]QTF[X3]NLWRLL[S8]QN-NH2),99
8,CC(=O)N[C@@H](CCC(N)=O)C(=O)N[C@H](C(=O)N[C@@H](Cc1ccccc1)C(=O)N[C@]1(C)CCCCCCC=CCCC[C@@](C)(C(=O)N[C@@H](CO)C(N)=O)NC(=O)[C@H](CC(C)C)NC(=O)[C@H](CCC(N)=O)NC(=O)[C@H](CO)NC(=O)[C@H](Cc2c[nH]c3ccccc23)NC(=O)[C@H](Cc2c[nH]c3ccccc23)NC(=O)[C@H](Cc2c[nH]cn2)NC1=O)[C@@H](C)O (Ac-QTF[R8]HWWSQL[S5]S-NH2; staple 4-11),21.6
9,CC(=O)N[C@@H](CCCNC(=N)N)C(=O)N[C@@H](CO)C(=O)N[C@@H](CCC(N)=O)C(=O)N[C@@H](CCC(N)=O)C(=O)N[C@H](C(=O)N[C@@H](Cc1ccccc1)C(=O)N[C@]1(C)CCCCCCC=CCCC[C@@](C)(C(=O)N[C@@H](CCC(N)=O)C(=O)N[C@@H](CC(N)=O)C(N)=O)NC(=O)[C@H](CC(C)C)NC(=O)[C@H](CC(C)C)NC(=O)[C@H](CCCNC(=N)N)NC(=O)[C@H](Cc2c[nH]c3ccccc23)NC(=O)[C@H](CC(C)C)NC(=O)[C@H](CC(N)=O)NC1=O)[C@@H](C)O (Ac-RSQQTF[R8]NLWRLL[S5]QN-NH2; staple 7-14),62.3
10,CCCC[C@H](NC(C)=O)C(=O)N1CCC[C@H]1C(=O)N[C@@H](CCCNC(=N)N)C(=O)N[C@@H](Cc1ccccc1)C(=O)N[C@]1(C)CCCCCCC=CCCC[C@@](C)(C(N)=O)NC(=O)[C@H](CC(C)C)NC(=O)[C@H](CC(C)C)NC(=O)[C@H](CCCNC(=N)N)NC(=O)[C@H](Cc2c[nH]c3ccccc23)NC(=O)[C@H](Cc2ccc(O)cc2)NC(=O)[C@H](CC(N)=O)NC1=O (Ac-[Nle]PRF[R8]NYWRLL[S5]-NH2; staple 5-12),54.4
11,CCCC[C@H](NC(C)=O)C(=O)N1CCC[C@H]1C(=O)N[C@@H](CCCNC(=N)N)C(=O)N[C@@H](Cc1ccccc1)C(=O)N[C@]1(C)CCCCCCC=CCCC[C@@](C)(C(=O)N[C@@H](CCC(N)=O)C(=O)N[C@@H](CC(N)=O)C(N)=O)NC(=O)[C@H](CC(C)C)NC(=O)[C@H](CC(C)C)NC(=O)[C@H](CCCNC(=N)N)NC(=O)[C@H](Cc2c[nH]c3ccccc23)NC(=O)[C@H](Cc2ccc(O)cc2)NC(=O)[C@H](CC(N)=O)NC1=O (Ac-[Nle]PRF[R8]NYWRLL[S5]QN-NH2; staple 5-12),62.6
12,Ac-MPRFMDYWEGLN-NH2,7.5
13,Ac-QSQQTFSNLWRLLPQN-NH2,5
14,Ac-QTFEHWWSQLLS-NH2,21.6
15,Ac-TSFAEYWNLLSP-NH2,6.8

# Target: HDM2 (Homo sapiens, UniProt Q00987)
# Test: FP Competition Blinding Assay | HDM2 IC50 (nM)
# Settings: not given
# Chain of HDM2 (Q00987 whole entry, looked up): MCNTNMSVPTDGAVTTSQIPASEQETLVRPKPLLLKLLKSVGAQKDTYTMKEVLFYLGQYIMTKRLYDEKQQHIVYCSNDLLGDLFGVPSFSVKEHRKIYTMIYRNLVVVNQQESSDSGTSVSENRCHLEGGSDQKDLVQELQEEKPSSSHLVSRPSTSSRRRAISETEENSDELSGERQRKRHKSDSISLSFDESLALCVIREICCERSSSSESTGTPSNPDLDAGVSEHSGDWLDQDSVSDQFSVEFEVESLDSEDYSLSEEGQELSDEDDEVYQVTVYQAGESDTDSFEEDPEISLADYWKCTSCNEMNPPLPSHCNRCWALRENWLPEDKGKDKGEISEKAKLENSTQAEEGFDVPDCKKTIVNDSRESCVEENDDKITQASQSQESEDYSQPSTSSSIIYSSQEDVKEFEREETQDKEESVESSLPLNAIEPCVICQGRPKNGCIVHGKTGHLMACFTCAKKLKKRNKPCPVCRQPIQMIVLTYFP
row,IC50 [nM],Compound
1,185,"CC(=O)N[C@@H](Cc1c[nH]c2ccccc12)C(=O)N[C@H](C(=O)N[C@@H](Cc1ccccc1)C(=O)N[C@]1(C)CCCCCCC=CCCC[C@@](C)(C(=O)N[C@@H](CO)C(N)=O)NC(=O)[C@H](CC(C)C)NC(=O)[C@H](CCC(N)=O)NC(=O)[C@H](C)NC(=O)[C@H](Cc2c[nH]c3ccccc23)NC(=O)[C@H](Cc2ccc(O)cc2)NC(=O)[C@H](Cc2c[nH]cn2)NC1=O)[C@@H](C)O [SP-256, Ac- W T F $r8 H Y W A Q L $ S -NH2] (Ac-WTF[R8]HYWAQL[S5]S-NH2; staple 4-11)"
2,66,"CC(=O)N[C@@H](CC(C)C)C(=O)N[C@H](C(=O)N[C@@H](Cc1ccccc1)C(=O)N[C@]1(C)CCCCCCC=CCCC[C@@](C)(C(=O)N[C@@H](CO)C(N)=O)NC(=O)[C@H](CC(C)C)NC(=O)[C@H](CCC(N)=O)NC(=O)[C@H](C)NC(=O)[C@H](Cc2c[nH]c3ccccc23)NC(=O)[C@H](Cc2ccc(O)cc2)NC(=O)[C@H](C(C)C)NC1=O)[C@@H](C)O [SP-266, Ac- L T F $r8 V Y W A Q L $ S -NH2] (Ac-LTF[R8]VYWAQL[S5]S-NH2; staple 4-11)"
3,90,"CC(=O)N[C@@H](CC(C)C)C(=O)N[C@H](C(=O)N[C@@H](Cc1ccccc1)C(=O)N[C@]1(C)CCCCCCC=CCCC[C@@](C)(C(=O)N[C@@H](CO)C(N)=O)NC(=O)[C@H](CC(C)C)NC(=O)[C@H](CCC(N)=O)NC(=O)[C@H](CO)NC(=O)[C@H](Cc2c[nH]c3ccccc23)NC(=O)[C@H](Cc2ccc(O)cc2)NC(=O)[C@H](C)NC1=O)[C@@H](C)O [SP-360, Ac- L T F $r8 A Y W S Q L $ S -NH2] (Ac-LTF[R8]AYWSQL[S5]S-NH2; staple 4-11)"
4,16.2,"CC(=O)N[C@@H](CC(C)C)C(=O)N[C@H](C(=O)N[C@@H](Cc1ccccc1)C(=O)N[C@]1(C)CCCCCCC=CCCC[C@@](C)(C(=O)N[C@@H](CO)C(N)=O)NC(=O)[C@H](CC(C)C)NC(=O)[C@H](CCC(N)=O)NC(=O)[C@H](C)NC(=O)[C@H](Cc2c[nH]c3ccccc23)NC(=O)[C@H](Cc2ccc(O)cc2)NC(=O)[C@H](CCC(=O)O)NC1=O)[C@@H](C)O [SP-512, Ac- L T F $r8 E Y W A Q F $ S -NH2] (Ac-LTF[R8]EYWAQL[S5]S-NH2; staple 4-11)"

# From US9957299B2, “Peptidomimetic macrocycles” (AILERON THERAPEUTICS, INC., priority 2010, dated 2018)
